According to PMC11098746 (2024):

Each binder was assayed against FGFR4 ectodomain (Homo sapiens, UniProt P22455) (assay: AVEXIS normalised luminescence).

Row | Binder | binding score
1 | 35 (protein, bait human Fc-tagged dimer) NNADINKAWKKNTYVDKKLNKLFNRALGESQVNGELASEEVKEKILDLLEEGNTLTESVDDNKNLEEAEDIKENILLSNIEEPKENIIDNLLNNIGQNSEKQESVSENVQVSDELFNELLNSVDVNGEVKENILEESQVNDDIFNSLVKSVQQEQQHNVEEKVEESVEENDEESVEENVEENVEENDDESVASSVEESIASSVDESIDSSIEENVAPTVEEIVAPTVEEIVAPSVVESVAPSVEESVEENVEESVAENVEESVAENVEESVAENVEESVAENVEESVAENVEESVAENVEEIVAPTVEESVAPTVEEIVAPSVEESVAPSVEEIVVPTVEESVAENVEEIVAPSVEEIVAPSVEEIVAPTVEESVAPTVEEIVAPSVEESVAPSVEEIVVPTVEESVAENVEESVAENVEEIVAPSVEEIVAPSVEEIVAPSVEEIVAPSVEEIVAPSVEEIVAPSVEEIVAPSVEEIVAPSVEEIVAPTVEEIVAPTVEEIVAPSVEEIVAPTVEESVAENVATNLADNLLSNLLGGIETEEIKDSILNEIEEVKENVVTTILENVEETTAESVTTFSNILEEIQENTITNDAIEEKLEELHENVLSAALENTQSEEEKKEVIDVIEEVKEEVATTLIETVEQAEEESASTITEIFENLEENAVESNENVAENLEKLNEAVFNTVLDKVEETVEISGESLENNEMDKAFFSEIFDNVKGIQENLLTGMFRSIETSIVIQSEEKVDLNENVVSSILDNIENMKEGLLNKLENIASTEGVQETVTEHVEQNVYVDVDVPAMKDQFLGILNEAGGLKEMFFNLEDVFKSESDVITVEEIKDEPVQKEVEKETVSIIEEMEENIVDVLEEEKEDLTDKMIDAVEESIEISSDSKEETESIKDKEKDVSLVVEEVQDNDMDESVEKVLELKNMEEELMKDAVEINDITSKLIEETQELNEVEADLIKDMEKLKELEKALSEDSKEIIDAKDDTLEKVIEEEHDITTTLDEVVELKDVEEDKIEKVSDLKDLEEDILKEVKEIKELESEILEDYKELKTIETDILEEKKEIEKDHFEKFEEEAEEIKDLEADILKEVSSLEVEEEKKLEEVHELKEEVEHIISGDAHIKGLEEDDLEEVDDLKGSILDMLKGDMELGDMDKESLEDVTAKLGERVESLKDVLSSALGMDEEQMKTRKKAQRPKLEEVLLKEEVKEEPKKKITKKKVRFDIKDKEPKDEIVEVEMKDEDIDEDIEEDVEEDIEEDKVEDIDEDIDEDIDEDIGEDKDEVIDLIVQKEKRIEKVKEKKKKLEKKVEEGVSGLKKHVDEVMKYVQKIDKEVDKEVSKALESKNDVTNVLKQNQDFFSKVKNFVKKYK | 0.753
2 | 31 (protein, bait human Fc-tagged dimer) EGYICDFSSEKYNIYFDEQKDDVICYHEIYEGDSIGIIIPRYKEGNENIYIKTNCFNEVSLESSGNNALSIYDIFNDDEITLYDQDSIFYTEYISSILHIKKVKKNTYLHCVFESKDVNGLTTHKGIAKITIKNVKHNENKKLINNDVDNNAALSFKKKLTNKLVIDLLNKIDIIKDDKLNNQYNNDDNKFLVEAKPGDILYLLGVKRKNKKYLYVDQDCPLHFERIGSIYKYIFPIINEKEEIYNCALYVDDDVSTNKKIVGNLKITFVSKNPAINDINIDVLKKYIHSDIEQKLYKLLYGEISNSVNKYAEQNVDINNADISAIQFMNLNSDNCNNNECIEFFNNAACSSYCGKGYRLLNGNNHMYDEQMVVPCYNGECKPEDEIEP | 1.28
3 | 40 (protein, bait human Fc-tagged dimer) ISTHDTCDEWSEWSACTHGISTRKCLSDSSIKDETLVCTKCDKWGEWSECKDGRMHRKVLNCPFIKEEQECDVNNEMAEDTHMNNAYIYFNADDGDNEYEDHDDKNDDDKNYDNENDDDKNDDDKNDDDKNDDDKNDDDKNDDEENYNDAEEKVKNNDIHNSAANSNNEVTNFIQIKDKIMIKHKTTNIHPVNFIQEKYTRNNKYRSDNFAKILNNMNHINNNNYNSRSSSTSSKNARGYRGGSSNMYPHVPNYASSSVHNSANNERKSDEDLDNIEGDNIAKEERIVPINNKNYDNHDEHSNIHEHDTSRNVDNEKYNSNDDLPNLATYDYDMNNDAYKKNHMKKPMDSIKEEQTKQENNQNNEKVSSSEKQNDDISALYEHMNTKDQEHTQHEQPNDAAHGHFEDYSK | 1.75
4 | 60 (protein, bait human Fc-tagged dimer) GIITGKLNYFGTFSLKIFAKTYFQYKINTYSNLYSYCGISQEYNKAKSTCESCPIGTFWNSEKLLCENCQKYIENTATLKNGAKLKTDCLCSPGYEYSDKSSKCEKCKPGYYKKSVGNFICIKGCPINEKSITYGAKSYAEMDCKCIEGYYRKEDKCVLCLSNYYCPGNELIKPCDKNKISKEGVIHKNDCICKENYIKDNKNNNCVYCASIAKILGKPIYCSLCDPIYFHEDIYKNIFLLPNNIHNYGLINNIYNYDEDLSLQGNIMKYAYFHKTTNIERNFAHYINIKNIYHTFNNNINNYDYLTNSKFAIEIDIPEPKKCIFCDSGYYIKKKKCISCTTKYCEGFNHNPKACPKNSVVNKMKASSIFDCSCKRGYGILNERRNAYSNTITCQICPQNFFKHIISDDSCFPCPLYTYTLNQGATSILQCLPKKGYFIYMFKSINIDYLRYKFDINTENRIYNYFENNNKIFDEDVYNFFLNKQYSKFFYNTENK | 0.959
5 | 81 (protein, bait human Fc-tagged dimer) EFVKGSYESKGYPLIHLMNNNEYTGSANNFIKNNLINLLYIYKDVKFDEEKTLGIDSFLDIEDDTKIERLIKEKMLYINKYINSRQMIKYSGFIYLYEIIEKKNFYFLLHFLMTNNNNGLIIILPEDMYINVDEYYRINKINKLNDQNKKNKVVSQDLLEKRIMFVQSLILNMKLQQSIYFIKNNKDIEKIYENYQSKFAYFDLTRNVAISPISKIQNVYKMNSKSLYYFLNKNNNIHINTIFNKQQDNQAFLLTKQKTIIICADFNVFNIFSDLPSNTAFTNSNLITIQNLIKLFYDVYNKEQVNYNILFFFTNYYYGIQDFLNSINVIFKENIEFVICLDNLNNADFYIYESNKAQPQNVQAFYRILNNIVKGSIKKNVQMVNEKIKIHSKHLPSLHEYFVLNKINSFSLSSSKKNNNMIFLNKFPMLQPKLNIQNVKNNIAIIFKSLYLYMTQKKTDQKENTQQEQSIEKNEKEKSMLTYINKNMASNDDMNTIDYNLNKYNKFFIYKEDTLKLFNYFKTIINSNIADTNFLIKDYKLTTDKKQKFFYQKYAHVTFSMAISYVFH | 0.817
6 | 64 (protein, bait human Fc-tagged dimer) RMNVVSHNSMKKVGEEGKDEKIISCVVEYVIKGDLSIDDGDFCDSNSICSNNPGLCDNGQVVVPGDYCSNYYDITLVVEESSFVQKDYWLKGTIPFLESMVFNSNVAKDKAHMSVVLFAGKQRVVVPFTDESSQDKNMLLEKINSIDEGIATSSDTLYVNALKYAIENVIFGDGTRKDAPKVAVLFYYGFDYGANKNMIPDVVQTYKEQNVKLIIVGIALGIRDNAYLLADCSIGDENCVNVVFKPWDFVIPAAADVNQKICDKNKA | 0.876
7 | 73 (protein, bait human Fc-tagged dimer) NNIKLNDKENINFESYFNKRTNEENVLNKNVAKEMGDTFVAHKAIELNINHHHVNNDKEFNNNNNNKHQPYYHNEHDKKFSESLKAHMDHLKILNNDLKQHIDKKERNEIYENNDLKKYIIKEIQNNKYLNKEKKSSEDIQILEEHSKKLQKEIHEWLESVNNIEEKSNILKNIKSQLLNNIASLNHALSEEIKNINDIKELQKQQNDLFSENWLYFLPSSSDYLLNEKKKNLYDNQDNSMKDDINNNDKYNIFNYLQNVQDKDNQYEVMKQDNNNIHSGSS | 198
8 | 48 (protein, bait human Fc-tagged dimer) GCIKLKTSYKHEPILLLKNDERIISLNKIIPYLTEEVFISKDNIMTKINVENNICIELIKKHEILNTPIEHFFHFTNREYTIDLRNNDNIYNYAKRILNNKLDFELCNKILSFTIPINYNICSFPSYHNYFLYINYLKDVKIELIISALEKAKFLFLKIPNTFNLNTAHANFNDNDYIIEKGILENDLIKIDISKIIHRYICKKYYLYKSDEQINDDDLRQINNNNANNDISDKEIKMVLMTSHTLSDIIIFPSIIQNVQALKHYKNIKNVVKLKKKIKKRYTEWENWAPCYNVCNNNFAYKCRYYKCTTENQEFCDQNFHMNFAECPFTPCEDAIKKENEKKEIEKDKNKAIIINHENNRDQEGPIDDETMLRYRKNKKISFFMWIINNKK | 0.752
9 | 62 (protein, bait human Fc-tagged dimer) EFKRKQKVEINSLQTNKNNDNIREEKIKGDVESQPDVDGDTCVIFSSSEGNSRNCWCPRGYILCSEEDVLDVQGKLNEIKNKHERSLVTPLWMKRLCDNSNDVGFKSMSVVIDYELAVLCKDGSNKDYADFEIIGASGYITGEEMIEEQKRNPWYVPRKCTVNNFYLCRKVENDNVNCAYTPWSDWSACKNNAQKRYRKVRRSNQNNENFCLWNDKIVPRNIMEQTRSC | 1.47
10 | 14 (protein, bait human Fc-tagged dimer) KNINLNDEGKKKQSGIINENEDGKNNKANNNKKVQHNKINRKGNNAVTKKTDEHKNDGDAENKKNGEHKNDGDGKNKKNGEHKNDGDGKNKKMDEHLYDIDGENKKNGEHLYDVDGENKKNGEHLYDIDGENKKNGEHLYDIDGENKKTDEHLYDVDGGKNNILEYNNIDQHNEFPESLENDNSYDKLFDDVELRDIIHNEKFFENLKNVNNNDVHNFLLVDKEMERRKEEEKKKSRKLEEDEEDDEDEEEDNDEKWKEENKNNAASSSSSSSNNFNKNYDIYDNRDLYNYDNLVDITQEEHINVPNINDEINEGRKHDKEDFLIFEKRLNEAEDRNDASDGDNKMEDLINNHFDDSGDNGAYENIQVKKELYNKNEKIIKGRDNNLNDGDIHMNKNNAANKLNNNNNNNNNDNNMNSEMKYKTFKEEYEEQILSKP | 0.821
11 | 29 (protein, bait human Fc-tagged dimer) QNYWEHPYQNSDVYRPINEHREHPKEYEYPLHQEHTYQQEDSGEDENTLQHAYPIDHEGAEPAPQEQNLFSSIEIVERSNYMGNPWTEYMAKYDIEEVHGSGIRVDLGEDAEVAGTQYRLPSGKCPVFGKGIIIENSNTAFLTPVATGNQYLKDGGFAFPPTEPLMSPMTLDEMRHFYKDNKYVKNLDELTLCSRHAGNMIPDNDKNSNYKYPAVYDDKDKKCHILYIAAQENNGPRYCNKDESKRNSMFCFRPAKDISFQNYAYLSKNVVDNWEKVCPRKNLQNAKFGLWVDGNCEDIPHVNEFPAIDLFECNKLVFELSASDQPKQYEQHLTDYEKIKEGFKNKNAAMIKSAFLPTGAFKADRYKSHGKGYNWGNYNTETQKCEIFNVKPTCLINNAAYIATTALSHPIEVENNFPCSLYKDEIMKEIERESKRIKLNDNDDEGNKKIIAPRIFISDDKDSLKCPCDPEMVSNSACRFFVCKCVERRAEVTSNNEVVVKEEYKDEYADIPEHKPT | 1.43
